Assay results from paper doi:10.1101/2024.08.29.610268.

Molecular target: NELF complex WT (NELF-A/B/D/E) (human, UniProt Q9H3P2;Q8WX92;Q8IXH7;P18615 1-528;1-628;1-590;1-380)
Test: fluorescence anisotropy

CCAGAUCUGAGCCUGGGAGCUCUCUGG (structured_RNA) [HIV-1 TAR stem loop]
binding result: binds
